Experimental findings from US20070060518A1 are described below.

Test [1] has as its target HLA-A*0201 class I monomer on avidin-coated plates (iTopia Epitope Discovery System) (human). Description: iTopia affinity assay (FIGS. 27A and 27B).
The target is the same in test [2]. Description: iTopia off-rate assay (FIG. 26).

“PRAME425-433 S425F L433Nle analog (peptide)” yielded a fold reduction of ED50 against the native peptide in test [1] greater than 4 fold.
In turn, “PRAME425-433 analog with Nva at PΩ (peptide)” displayed a t1/2 in test [2] of 17.2 h.
